In PMC5018835:

What was measured:
[1] = target: Hsp82p:Hsp82p^V391E/LL heterodimer (S. cerevisiae), P02829
[2] = target: Hsp82p:Hsp82p^LL heterodimer (S. cerevisiae), P02829

Binder	apparent affinity (Kapp) from the fit of ATPase stimulation of Hsp82p:Hsp82p^V391E/LL heterodimers (1 μM + 5 μM) against Aha1p concentration (Fig. 3E) [1] [µM]	inhibition of the ATPase activity of Hsp82p:Hsp82p^LL heterodimers (1 μM + 5 μM) by titrated Hch1p (~16% at 2.5 μM, ~11% at 5 μM, overcome at higher concentrations; Fig. 2C) [2] [%]
Aha1p (full length, N-terminal 6xHis tag), Q12449 1-350 (natural protein) MVVNNPNNWHWVDKNCIGWAKEYFKQKLVGVEAGSVKDKKYAKIKSVSSIEGDCEVNQRKGKVISLFDLKITVLIEGHVDSKDGSALPFEGSINVPEVAFDSEASSYQFDISIFKETSELSEAKPLIRSELLPKLRQIFQQFGKDLLATHGNDIQVPESQVKSNYTRGNQKSSFTEIKDSASKPKKNALPSSTSTSAPVSSTNKVPQNGSGNSTSIYLEPTFNVPSSELYETFLDKQRILAWTRSAQFFNSGPKLETKEKFELFGGNVISELVSCEKDKKLVFHWKLKDWSAPFNSTIEMTFHESQEFHETKLQVKWTGIPVGEEDRVRANFEEYYVRSIKLTFGFGAVL	0.8	–
Hch1p (N-terminal 6xHis tag), P53834 1-153 (natural protein) MVVLNPNNWHWVDKNTLPWSKDYLNGKLTSLSTVSSDGKSKIELTQVSSITGDSNVSQRKGKPICYFDLQLSMNVKVTNLDTNKDDEDDDGILADGKLEIPEFMHDESDIPILSQGFDAFDGLVRSEFVPKVVETLLKYQDDLIKEHSKDIQV	–	16
